The values that follow come from patent US20130245385A1.

In this test the target is sHLA-A2 (soluble class I HLA-A2) (human). Description: 65 ml class I HLA SHARC, 24.4 mg W6/32 at 97 µg/ml in PBS.

In the case of “W6/32 pan class I HLA monoclonal antibody”, the antibody recovered in the elution was found to be 8 mg and the antibody that passed through the column came out at 11.7 mg.
